What was measured:
Conditions in all cases: both partners purified
σR (residues 5-227) = biological target: T1, σR (residues 5-227) (Streptomyces coelicolor, UniProt Q7AKG9 5-227); test: ITC; with zinc (+), RsrA preincubated with 1 mM ZnCl2 and buffer exchanged; direct titration for weaker binding mutants (methods: 10 μM RsrA in the cell, 100 μM σR in the syringe); 35 °C, 50 mM Tris pH 7.5, 100 mM NaCl, 2 mM DTT; single binding site model
T1 construct: ECF sigma factor σR (SigR) of Streptomyces coelicolor; residues 5-227 subcloned into pET21a with a C-terminal stop codon for tagless expression; also called sigma factor σR; SigR; source: E. coli BL21(DE3), purified without tags (ammonium sulfate precipitation, Q-Sepharose, Hi-Load S75)

[1] = biological target: T2, σ^R (sigma factor SigR) from Streptomyces coelicolor, residues 5-227, tagless (Streptomyces coelicolor, UniProt Q7AKG9 5-227); test: ITC; RsrA mutants (values in Supplementary Table 1); 35 °C, 50 mM Tris pH 7.5, 100 mM NaCl, 2 mM DTT; direct titration for weaker binding mutants (10 μM RsrA in the cell, 100 μM σ^R in the syringe); RsrA preincubated with ZnCl2 and buffer exchanged where zinc was included
T2 construct: ECF sigma factor σ^R (SigR) of Streptomyces coelicolor, residues 5-227 subcloned into pET21a (NdeI, BamHI) with a C-terminal stop codon; also called wild-type σ^R; source: E. coli BL21(DE3), pET21a, purified without tags (ammonium sulfate, Q-Sepharose, Hi-Load S75)

σR Trp88Ile Trp119Ile = biological target: T3, σR Trp88Ile Trp119Ile (Streptomyces coelicolor, UniProt Q7AKG9 5-227, Trp88Ile | Trp119Ile); test: ITC; competition ITC as for the wild-type complex (Figure 3a): RsrAred.Zn2+ (100 μM) titrated into σR (10 μM, cell) in the presence of 50 μM weak competitor RsrA* Cys11Ser Cys44Ser; 35 °C, 50 mM Tris pH 7.5, 100 mM NaCl, 2 mM DTT
T3 construct: ECF sigma factor σR (SigR) of Streptomyces coelicolor; mutant of the tagless construct of residues 5-227 (all σR mutants were similarly purified); The limits are those of the wild-type construct; source: E. coli BL21(DE3), purified as wild-type σR

| Kd (σR (residues 5-227)) [nM] | Binder | further results |
| --- | --- | --- |
| 105 | RsrA V54A L57A (natural protein, Streptomyces coelicolor, UniProt Q7AKG8 1-105, looked up, also called RsrA Val54Ala Leu57Ala; source: E. coli BL21(DE3) pLysS, purified by a His-tag that was removed by thrombin; not shown: His tag, N-terminal, cleaved) MSCGEPHETDCSEILDHLYEFLDKEMPDSDCVKFEHHFEECSPCLEKYGLEQAAKKAVKRCCGQDDVPGDLRAKVMGRLDLIRSGQSVPEHDVAAAPSSSAPQES | – |
| 297 | RsrA* C41S C44S (natural protein, Streptomyces coelicolor, UniProt Q7AKG8 1-105, looked up, source: E. coli BL21(DE3) pLysS, purified by a His-tag that was removed by thrombin; not shown: His tag, N-terminal, cleaved) MSAGEPHETDCSEILDHLYEFLDKEMPDSDAVKFEHHFEESSPSLEKYGLEQAVKKLVKRAAGQDDVPGDLRAKVMGRLDLIRSGQSVPEHDVAAAPSSSAPQES | – |
| 82.1 | RsrA V75A L79A (natural protein, Streptomyces coelicolor, UniProt Q7AKG8 1-105, looked up, also called RsrA Val75Ala Leu79Ala; source: E. coli BL21(DE3) pLysS, purified by a His-tag that was removed by thrombin; not shown: His tag, N-terminal, cleaved) MSCGEPHETDCSEILDHLYEFLDKEMPDSDCVKFEHHFEECSPCLEKYGLEQAVKKLVKRCCGQDDVPGDLRAKAMGRADLIRSGQSVPEHDVAAAPSSSAPQES | – |
| – | RsrA* Cys41His (natural protein, Streptomyces coelicolor, UniProt Q7AKG8 1-105, looked up, source: E. coli BL21(DE3) pLysS, purified using a His-tag that was removed by thrombin cleavage; not shown: His-tag, N-terminal, cleaved) MSAGEPHETDCSEILDHLYEFLDKEMPDSDAVKFEHHFEEHSPCLEKYGLEQAVKKLVKRAAGQDDVPGDLRAKVMGRLDLIRSGQSVPEHDVAAAPSSSAPQES | binding result [1]: binds |
| 79 | RsrA* C11S (natural protein, Streptomyces coelicolor, UniProt Q7AKG8 1-105, looked up, source: E. coli BL21(DE3) pLysS, purified by a His-tag that was removed by thrombin; not shown: His tag, N-terminal, cleaved) MSAGEPHETDSSEILDHLYEFLDKEMPDSDAVKFEHHFEECSPCLEKYGLEQAVKKLVKRAAGQDDVPGDLRAKVMGRLDLIRSGQSVPEHDVAAAPSSSAPQES | – |
| – | RsrA* C11S C44S (natural protein, Streptomyces coelicolor, UniProt Q7AKG8 1-105, looked up, also called RsrA* Cys11Ser Cys44Ser; source: E. coli BL21(DE3) pLysS, purified by a His-tag that was removed by thrombin; not shown: His tag, N-terminal, cleaved) MSAGEPHETDSSEILDHLYEFLDKEMPDSDAVKFEHHFEECSPSLEKYGLEQAVKKLVKRAAGQDDVPGDLRAKVMGRLDLIRSGQSVPEHDVAAAPSSSAPQES | binding result (σR Trp88Ile Trp119Ile): binds |
| 240 | RsrA* C11S C41S (natural protein, Streptomyces coelicolor, UniProt Q7AKG8 1-105, looked up, source: E. coli BL21(DE3) pLysS, purified by a His-tag that was removed by thrombin; not shown: His tag, N-terminal, cleaved) MSAGEPHETDSSEILDHLYEFLDKEMPDSDAVKFEHHFEESSPCLEKYGLEQAVKKLVKRAAGQDDVPGDLRAKVMGRLDLIRSGQSVPEHDVAAAPSSSAPQES | – |
| 305 | RsrA* C11H C41H C44H (natural protein, Streptomyces coelicolor, UniProt Q7AKG8 1-105, looked up, also called RsrA* Cys11His Cys41His Cys44His; source: E. coli BL21(DE3) pLysS, purified by a His-tag that was removed by thrombin; not shown: His tag, N-terminal, cleaved) MSAGEPHETDHSEILDHLYEFLDKEMPDSDAVKFEHHFEEHSPHLEKYGLEQAVKKLVKRAAGQDDVPGDLRAKVMGRLDLIRSGQSVPEHDVAAAPSSSAPQES | – |
